The source of these data is publication PMC11446014, “Human IL-22 receptor-targeted small protein antagonist suppress murine DSS-induced colitis” (Cell Communication and Signaling : CCS, 2024).

Holding throughout (conditions): both partners purified
Test [1] has as its target T1, recombinant human IL-22R1 (rhIL-22 Rα1) (human, UniProt Q8N6P7 16-228).
T1 construct: recombinant human IL-22 receptor alpha (rhIL-22 Rα1); also called commercial IL-22R1; source: bought: R&D Systems
T1 sequence (looked up): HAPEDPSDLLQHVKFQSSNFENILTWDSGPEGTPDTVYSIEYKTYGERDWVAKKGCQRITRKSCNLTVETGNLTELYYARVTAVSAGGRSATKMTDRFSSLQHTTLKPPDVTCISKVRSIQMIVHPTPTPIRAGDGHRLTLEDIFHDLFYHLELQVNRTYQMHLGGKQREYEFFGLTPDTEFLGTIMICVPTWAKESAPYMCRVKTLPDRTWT
The test can be described thus: ELISA; receptor (IL-22R1 or IL-22R1-IgG Fc) coated on MaxiSorp plate; serially diluted IL-22 (Fc chimera or His tag); detection by mouse anti-human IgG (Fc)-HRP or anti-His monoclonal antibody-HRP; BSA wells as control.

The target of test [2] is T2, recombinant human IL-22R1 (rhIL-22 Rα1) (human, UniProt Q8N6P7 16-228).
T2 construct: human interleukin-22 receptor alpha (IL-22R1), recombinant soluble protein; Probably the extracellular part; also called IL-22 receptor alpha; commercial IL-22R1; source: bought: R&D Systems
T2 sequence (looked up): T1 sequence (looked up)
The test can be described thus: ELISA; IL-22 on IL-22R1 coated on a MaxiSorp 96-well plate (Fig. S1).

Test [3] addresses T2, recombinant human IL-22R1 (rhIL-22 Rα1). The test can be described thus: ELISA; competition: human IL-22R1 coated (1 µg/ml) on MaxiSorp; purified ABD-derived variants serially diluted in PBS-T with 1% BSA with 1 nM IL-22 Fc chimera; IL-22-Fc detected by anti-human IgG (Fc) HRP. In general terms: In an ELISA, binding on a coated surface is turned into a signal by an enzyme label.

B1: recombinant human IL-22 protein, Fc Chimera (Fc fusion, UniProt Q9GZX6 34-179, looked up)
chain: APISSHCRLDKSNFQQPYITNRTFMLAKEASLADNNTDVRLIGEKLFHGVSMSERCYLMKQVLNFTLEEVLFPQSDRFQPYMQEVVPFLARLSNRLSTCHIEGDDLHIQRNVQKLKDTVKKLGESGEIKAIGELDLLFMSLRNACI
notes: human interleukin-22 fused to human IgG Fc; also called IL-22-IgG Fc cytokine; IL-22 (Fc chimera); source: bought: Abcam
Regarding B1, the binding result in test [1] is given as “binds”.

B2: human IL-22 (ligand, UniProt Q9GZX6 34-179, looked up)
chain: B1 chain
notes: human interleukin-22; it may be m16 or m17; also called hIL-22; IL-22 cytokine; source: bought: Abcam (cell assays)
Turning to B2, the binding result in test [2] is “binds”.

B3: recombinant human IL-22 protein, Fc Chimera (Fc fusion, UniProt Q9GZX6 34-179, looked up)
chain: B1 chain
notes: human interleukin-22; also called IL-22-Fc; IL-22 cytokine; source: bought: Abcam
On to B3, for which, in test [3], the binding result was “binds”.
